From PMC3884763

Target: Cavernularia obesa green fluorescent protein (CoGFP), wild-type, with a histidine tag at the N-terminus (Cavernularia obesa)
Experiment: SEC

## Cavernularia obesa green fluorescent protein (CoGFP), wild-type, with a histidine tag at the N-terminus (natural protein)
  stoichiometry N: 2
